Assay results from the supplement of paper PMC6757056.
± gives the standard deviation of the averaged measurements.

B1: library; a variant is named by its letters at N, in order (parent)
chain: GCUGUCACCGGUGUAUUACCCUAGUGGUCGACCGGUCUGAUGAGUCUNNNNNNAGACGAAACAGC

What was measured:
hypoxanthine [1] = variants of: B1; experiment: FACS-Seq fitted mean relative fluorescence mCherry/BFP without ligand (log10 relative fluorescence); ligand: hypoxanthine (xanthine aptamer); higher = higher reporter protein expression; details: HEK293T, ligand present: no
Protocol: (§1)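 Hammerhead (sTRSV) ribozyme switch libraries with a ligand aptamer grafted on stem I and a randomized N4-6 loop II, cloned into the 3' UTR of mCherry and transiently transfected into HEK293T cells; RNA-Seq 72 h post transfection with ligand added 1 h before transfection; RNA read count / plasmid DNA read count normalized to the non-cleaving sTRSVctl (x100), log10; sequences with >100 DNA reads. FACS-Seq: lentiviral library sorted into 6 bins after 48 h ligand, log-normal fit mean of mCherry/BFP scaled to controls. Printed sequences are partial switch sequences.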

hypoxanthine [2] = variants of: B1; experiment: normalized RNA/DNA level with ligand (relative to sTRSVctl = 100) (log10 (% of sTRSVctl)); ligand: hypoxanthine (xanthine aptamer); higher = less ribozyme self-cleavage, higher mRNA level; details: ligand concentration (+) RNA-Seq: 5 mM, HEK293T, reporter: mCherry (pCS4076), ligand present: yes
Protocol: as §1

hypoxanthine [3] = variants of: B1; experiment: normalized RNA/DNA level without ligand (relative to sTRSVctl = 100) (log10 (% of sTRSVctl)); ligand: hypoxanthine (xanthine aptamer); higher = less ribozyme self-cleavage, higher mRNA level; details: HEK293T, reporter: mCherry (pCS4076), ligand present: no
Protocol: as §1

hypoxanthine [4] = variants of: B1; experiment: FACS-Seq fitted mean relative fluorescence mCherry/BFP with ligand (log10 relative fluorescence); ligand: hypoxanthine (xanthine aptamer); ligand concentration (+) FACS-Seq: 5 mM; higher = higher reporter protein expression; details: HEK293T, ligand present: yes
Protocol: as §1

Variant | FACS-Seq fitted mean (log10) (hypoxanthine [1]) | normalized RNA/DNA level with ligand (log10) (hypoxanthine [2]) | normalized RNA/DNA level without ligand (log10) (hypoxanthine [3]) | FACS-Seq fitted mean (log10) (hypoxanthine [4])
GAAGAA | 0.4206 ± 0.0035 | 1.9256 ± 0.00044 | 1.677 ± 0.013 | 0.5245 ± 0.001
GAAGAC | 0.249 ± 0.014 | 1.921 ± 0.0023 | 1.63 ± 0.026 | 0.505 ± 0.069
GAAGAG | -0.121 ± 0.02 | 1.79 ± 0.022 | 1.27 ± 0.032 | 0.521 ± 0.037
UAAGGA | 0.215 ± 0.031 | 1.88 ± 0.041 | 1.608 ± 0.0063 | 0.472 ± 0.057
UAAGGG | 0.3343 ± 0.00083 | 1.878 ± 0.013 | 1.4441 ± 0.0011 | 0.519 ± 0.015
UAAGGU | 0.356 ± 0.021 | 1.94 ± 0.042 | 1.53 ± 0.027 | 0.602 ± 0.06
GAAAAU | 0.558 ± 0.04 | 1.92 ± 0.034 | 1.8 ± 0.02 | 0.532 ± 0.074
GAAAAC | 0.271 ± 0.058 | 1.87 ± 0.053 | 1.7 ± 0.033 | 0.271 ± 0.06
GAAAAA | 0.653 ± 0.036 | 1.91 ± 0.027 | 1.8 ± 0.041 | 0.629 ± 0.093
GAAAAG | 0.326 ± 0.035 | 1.83 ± 0.0058 | 1.47 ± 0.038 | 0.473 ± 0.036
AAAGGU | 0.195 ± 0.021 | 1.9 ± 0.054 | 1.61 ± 0.053 | 0.526 ± 0.025
AAAGGG | 0.0328 ± 0.0085 | 1.753 ± 0.0035 | 1.32 ± 0.073 | 0.292 ± 0.084
AAAGGC | -0.66 ± 0.0082 | 1.91 ± 0.035 | 1.781 ± 0.0092 | -0.684 ± 0.085
AAAGGA | 0.0795 ± 0.041 | 1.9 ± 0.031 | 1.58 ± 0.037 | -0.105 ± 0.2
CAACAC | 0.465 ± 0.089 | 1.895 ± 0.0089 | 1.69 ± 0.047 | 0.206 ± 0.043
CAACAU | 0.722 ± 0.052 | 1.87 ± 0.032 | 1.75 ± 0.035 | 0.672 ± 0.078
UAAAAA | 0.315 ± 0.015 | 1.905 ± 0.019 | 1.784 ± 0.00081 | 0.22 ± 0.0062
UAAAAU | 0.434 ± 0.055 | 1.89 ± 0.071 | 1.76 ± 0.0046 | 0.454 ± 0.039
UAAAAC | 0.723 ± 0.03 | 1.914 ± 0.0064 | 1.826 ± 0.0019 | 0.769 ± 0.068
GAACAG | 0.213 ± 0.041 | 1.8069 ± 0.00086 | 1.42 ± 0.061 | 0.674 ± 0.014
GAACAA | 0.477 ± 0.021 | 1.91 ± 0.046 | 1.732 ± 0.0073 | 0.62 ± 0.022
GAACAU | 0.466 ± 0.11 | 1.907 ± 0.00016 | 1.766 ± 0.01 | 0.349 ± 0.12
GAACAC | 0.66 ± 0.029 | 1.95 ± 0.029 | 1.74 ± 0.024 | 0.622 ± 0.049
UAAUAA | 0.267 ± 0.015 | 1.902 ± 0.012 | 1.78 ± 0.023 | 0.321 ± 0.019

Variant | FACS-Seq fitted mean (log10) (hypoxanthine [1]) | normalized RNA/DNA level with ligand (log10) (hypoxanthine [2]) | normalized RNA/DNA level without ligand (log10) (hypoxanthine [3]) | FACS-Seq fitted mean (log10) (hypoxanthine [4])
AAAGCG | 0.0919 ± 0.015 | 1.82 ± 0.026 | 1.32 ± 0.086 | 0.539 ± 0.023
AAAGCA | 0.391 ± 0.034 | 1.93 ± 0.043 | 1.77 ± 0.035 | 0.503 ± 0.023
AAAGCU | -0.307 ± 0.014 | 1.94 ± 0.026 | 1.85 ± 0.034 | -0.41 ± 0.022
UAACUA | 0.0691 ± 0.014 | 1.921 ± 0.0071 | 1.879 ± 0.0092 | -0.0104 ± 0.0014
UAACUG | 0.142 ± 0.042 | 1.896 ± 0.018 | 1.64 ± 0.017 | 0.31 ± 0.084
CAAGCA | 0.544 ± 0.054 | 1.964 ± 0.012 | 1.7 ± 0.063 | 0.609 ± 0.094
CAAGCC | 0.17 ± 0.076 | 1.96 ± 0.011 | 1.87 ± 0.028 | 0.404 ± 0.0094
AAAACA | 0.709 ± 0.064 | 1.897 ± 0.015 | 1.804 ± 0.015 | 0.65 ± 0.023
AAAACU | 0.313 ± 0.03 | 1.91 ± 0.093 | 1.8616 ± 0.00097 | 0.4 ± 0.12
AAAACG | 0.284 ± 0.015 | 1.85 ± 0.053 | 1.43 ± 0.017 | 0.616 ± 0.077
AAAGUA | 0.554 ± 0.029 | 1.9 ± 0.023 | 1.73 ± 0.053 | 0.61 ± 0.032
AAAGUU | 0.306 ± 0.0051 | 1.91 ± 0.026 | 1.823 ± 0.0039 | 0.548 ± 0.017
AAAGUG | 0.148 ± 0.035 | 1.81 ± 0.034 | 1.31 ± 0.043 | 0.47 ± 0.012
CAACGA | 0.153 ± 0.16 | 1.951 ± 0.011 | 1.79 ± 0.036 | 0.353 ± 0.055
CAACGC | 0.362 ± 0.014 | 1.92 ± 0.073 | 1.87 ± 0.019 | 0.326 ± 0.019
AAACGG | 0.034 ± 0.0048 | 1.73 ± 0.061 | 1.23 ± 0.082 | 0.486 ± 0.027
AAACGA | 0.38 ± 0.042 | 1.908 ± 0.0036 | 1.63 ± 0.046 | 0.5899 ± 0.0039
AAACGU | 0.362 ± 0.036 | 1.877 ± 0.0019 | 1.63 ± 0.043 | 0.519 ± 0.03
CAACUA | 0.494 ± 0.084 | 1.93 ± 0.029 | 1.709 ± 0.011 | 0.695 ± 0.016
CAACUU | 0.257 ± 0.007 | 1.95 ± 0.043 | 1.873 ± 0.0032 | 0.377 ± 0.026
AAAAGU | 0.21 ± 0.0047 | 1.854 ± 0.011 | 1.55 ± 0.032 | 0.339 ± 0.09
AAAAGG | 0.163 ± 0.004 | 1.78 ± 0.06 | 1.26 ± 0.027 | 0.725 ± 0.056
AAAAGA | 0.199 ± 0.0066 | 1.91 ± 0.053 | 1.67 ± 0.025 | 0.556 ± 0.061
GAACUA | 0.557 ± 0.024 | 1.873 ± 0.012 | 1.815 ± 0.0032 | 0.182 ± 0.072

Variant | FACS-Seq fitted mean (log10) (hypoxanthine [1]) | normalized RNA/DNA level with ligand (log10) (hypoxanthine [2]) | normalized RNA/DNA level without ligand (log10) (hypoxanthine [3]) | FACS-Seq fitted mean (log10) (hypoxanthine [4])
GAACUU | 0.731 ± 0.013 | 1.91 ± 0.11 | 1.8654 ± 0.0014 | 0.616 ± 0.025
GAAAGC | 0.368 ± 0.056 | 1.86 ± 0.028 | 1.39 ± 0.084 | 0.776 ± 0.043
GAAAGA | 0.507 ± 0.093 | 1.92 ± 0.029 | 1.71 ± 0.033 | 0.581 ± 0.065
GAAAGG | 0.141 ± 0.013 | 1.74 ± 0.029 | 1.2 ± 0.07 | 0.614 ± 0.017
GAAAGU | 0.233 ± 0.011 | 1.91 ± 0.022 | 1.752 ± 0.0063 | 0.17 ± 0.018
AAACAG | -0.248 ± 0.031 | 1.77 ± 0.058 | 1.35 ± 0.055 | 0.234 ± 0.03
AAACAU | 0.519 ± 0.022 | 1.86 ± 0.028 | 1.762 ± 0.0068 | 0.664 ± 0.099
AAACAA | 0.4127 ± 0.0021 | 1.902 ± 0.011 | 1.73 ± 0.022 | 0.382 ± 0.014
UAAAUA | 0.398 ± 0.012 | 1.92 ± 0.026 | 1.836 ± 0.002 | 0.49 ± 0.045
UAAAUU | 0.543 ± 0.057 | 1.92 ± 0.024 | 1.85 ± 0.035 | 0.516 ± 0.066
UAAAUG | 0.306 ± 0.023 | 1.936 ± 0.015 | 1.73 ± 0.035 | 0.483 ± 0.081
GAAGUU | -0.155 ± 0.12 | 1.966 ± 0.0047 | 1.831 ± 0.008 | -0.587 ± 0.17
GAAGUG | -0.0452 ± 0.0093 | 1.8 ± 0.024 | 1.276 ± 0.012 | 0.468 ± 0.037
GAAGCA | 0.802 ± 0.069 | 1.96 ± 0.03 | 1.76 ± 0.049 | 0.779 ± 0.075
GAAGCG | 0.1393 ± 0.001 | 1.8561 ± 0.0014 | 1.4 ± 0.075 | 0.56 ± 0.016
CAAGAA | 0.513 ± 0.021 | 1.89 ± 0.03 | 1.7 ± 0.044 | 0.45 ± 0.091
CAAGAG | 0.342 ± 0.095 | 1.86 ± 0.036 | 1.57 ± 0.03 | 0.473 ± 0.018
AAAUAA | 0.684 ± 0.016 | 1.89 ± 0.024 | 1.74 ± 0.025 | 0.775 ± 0.11
AAAAAA | 0.738 ± 0.02 | 1.9 ± 0.042 | 1.8 ± 0.033 | 0.664 ± 0.03
AAAAAU | 0.418 ± 0.0049 | 1.9 ± 0.06 | 1.74 ± 0.023 | 0.55 ± 0.021
AAAAAG | 0.286 ± 0.03 | 1.841 ± 0.013 | 1.52 ± 0.036 | 0.588 ± 0.046
AAAGAG | -0.112 ± 0.064 | 1.8 ± 0.025 | 1.32 ± 0.042 | 0.451 ± 0.045
AAAGAU | 0.523 ± 0.055 | 1.895 ± 0.016 | 1.68 ± 0.017 | 0.708 ± 0.025
AAAGAA | 0.0245 ± 0.07 | 1.9 ± 0.028 | 1.715 ± 0.0039 | 0.207 ± 0.017
